Ends that are not written are not given here.
Experiments:
human PTHRs [1] = biological target: T1, human PTHRs (Homo sapiens, UniProt Q03431); set-up: host or cells: LLC-PK1, COS-7 or HEK 293 cells; conditions: human PTHRs in LLC-PK1, COS-7 or HEK 293 cells; cited from earlier work
T1 sequence (Q03431 27-593): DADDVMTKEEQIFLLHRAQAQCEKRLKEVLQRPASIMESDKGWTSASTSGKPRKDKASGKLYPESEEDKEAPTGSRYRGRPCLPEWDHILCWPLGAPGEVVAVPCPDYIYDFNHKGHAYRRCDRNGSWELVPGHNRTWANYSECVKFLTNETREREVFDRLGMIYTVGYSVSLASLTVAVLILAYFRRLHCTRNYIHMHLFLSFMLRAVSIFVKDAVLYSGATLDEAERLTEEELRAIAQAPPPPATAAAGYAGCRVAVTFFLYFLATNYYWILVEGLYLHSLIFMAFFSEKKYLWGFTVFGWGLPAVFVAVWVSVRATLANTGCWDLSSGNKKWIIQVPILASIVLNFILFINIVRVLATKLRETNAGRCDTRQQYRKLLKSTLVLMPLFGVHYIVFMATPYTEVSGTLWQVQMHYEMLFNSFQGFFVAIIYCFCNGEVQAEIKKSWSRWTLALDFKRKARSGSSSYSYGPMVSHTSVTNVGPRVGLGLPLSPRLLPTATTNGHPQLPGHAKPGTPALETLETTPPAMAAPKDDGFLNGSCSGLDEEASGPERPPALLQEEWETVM

human PTHRs [2] = biological target: T1, human PTHRs; set-up: host or cells: LLC-PK1, COS-7 or HEK 293 cells; conditions: human PTHRs in LLC-PK1, COS-7 or HEK 293 cells; cited from earlier work; remark: listed apart in the source
human PTHRs [3] = biological target: T1, human PTHRs; test: PLC activation in COS-7 cells expressing human PTHRs; type: cell-based; conditions: up to 1000 nM
Method: (§1) All cells were maintained under 5% CO2 in air in Dulbecco's modified […] containing 7% fetal bovine serum (FBS) and 1% penicillin/streptomycin (GIBCO-BRL, Grand Island, N.Y.). Cells were seeded into 24-well plates two days before assay at a suitable cell density (approximately 2-2.5×10^5 cells/well). DNA transfections in COS/HEK cells were performed 24 hr after plating and inositol radiolabel was added 24 hr thereafter (see below). Cell transfections were performed as previously described (Gardella, T. J., et al., Endocrinology 132(5):2024-2030 (1993)).
(§2) PLC was activated by PTH agonists in the presence of 30 mM LiCl at 37° C. for 30 min after 16 hr of labeling with [^3H]myo-inositol (3uCi/ml) in serum-free medium containing 0.1% bovine serum albumin. The reactions were stopped by rapid aspiration and addition of cold 5% TCA. Water-soluble radiolabeled inositol trisphosphate (IP3) was isolated after ether extraction by ion-exchange chromatography (Guo, J., et al., Endocrinology 136(9):3884-3891 (1995)). In experiments involving HEK 293 cells, cells previously transfected with human PTHR cDNA (in the pcDNA1 expression vector HKRK) using Lipofectamine (Gibco BRL) were labeled with [^3H]myo-inositol and assayed as described above, except that total water-soluble [^3H]inositol polyphosphates were collected as a single fraction from the ion-exchange columns.

rat PTHRs = biological target: T2, rat PTHRs (Rattus norvegicus, UniProt P25961); test: PLC activation in COS-7 cells expressing rat PTHRs; type: cell-based; conditions: up to 1000 nM
T2 construct: expressed in transfected cells; host or cells: COS-7 cells
T2 sequence (P25961 27-591): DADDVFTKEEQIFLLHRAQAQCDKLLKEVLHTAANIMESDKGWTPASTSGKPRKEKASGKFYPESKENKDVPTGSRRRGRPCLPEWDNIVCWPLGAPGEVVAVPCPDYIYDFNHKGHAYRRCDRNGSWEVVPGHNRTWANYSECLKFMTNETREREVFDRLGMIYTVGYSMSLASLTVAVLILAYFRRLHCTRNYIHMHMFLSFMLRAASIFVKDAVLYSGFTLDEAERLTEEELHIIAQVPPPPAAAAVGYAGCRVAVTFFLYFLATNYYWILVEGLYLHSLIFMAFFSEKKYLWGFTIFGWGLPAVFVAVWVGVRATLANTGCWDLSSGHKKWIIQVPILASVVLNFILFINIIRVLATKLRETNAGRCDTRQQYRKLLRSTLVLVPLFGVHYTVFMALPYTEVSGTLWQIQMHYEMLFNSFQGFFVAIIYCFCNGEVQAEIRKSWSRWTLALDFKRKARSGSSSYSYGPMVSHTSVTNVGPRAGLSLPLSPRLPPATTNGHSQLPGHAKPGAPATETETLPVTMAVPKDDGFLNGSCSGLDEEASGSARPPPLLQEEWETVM
Method: as §1, §2

hPTH-1 receptors = biological target: T3, hPTH-1 receptors (Homo sapiens, UniProt Q03431); test: phospholipase C (PLC) activity in HKRK-B7 cells; type: cell-based; set-up: expressed in transfected cells; conditions: about 1 million hPTH-1 receptors per cell, 1000 nM (FIG. 4)
T3 sequence (Q03431 27-593): T1 sequence (Q03431 27-593)
Description: The following cell lines were used in these studies. HKRK C53 subclones of LLC-PKI porcine renal epithelial cells which stably express human PTH-1 receptors (150,000 receptors/cell). SaOS-2 cells are transformed human osteosarcoma cells which express relatively few (10,000-20,000 per cell) human PTH-1 receptors. HPR2-7 cells are subclones of LLC-PK1 which express approximately 250,000 recombinant human PTH-2 receptors per cell. HKRK-B7 cells are subclones of LLC-PK which stably express approximately 1 million hPTH-1 receptors per cell. HPR2-22 cells are subclones of LLC-PK1 which express 1.5 million recombinant hPTH-2 receptors per cell. The HPR2-27 and HPR2-22 cell lines were created in the same fashion as the HKRK cells but employing instead type 2 PTH receptor cDNA using the transfection technique of (Bringhurst, F. R., et al., Endocrinology 132(5):2090-2098 (1993); Guo, J., et al., Endocrinology 136(9):3884-3891 (1995)).
as §2

Substance	potency in activating PLC compared with hPTH-(1-34) (human PTHRs [1])	potency in activating AC compared with hPTH-(1-34) (human PTHRs [2])	activation of PLC (human PTHRs [3])	activation of PLC (rat PTHRs)	activation of PLC (hPTH-1 receptors)
hPTH-(1-31): C-truncated human PTH peptide, residues 1-31	as potent as hPTH-(1-34)	as potent as hPTH-(1-34)			
hPTH-(3-34): N-truncated human PTH peptide, residues 3-34 (SEIQLMHNLGKHLNSMERVEWLRKKLQDVHNF-NH2; UniProt P01270 34-65, looked up, fragment)			did not activate PLC	did not activate PLC	did not activate PLC
